For this experiment, the target named is Type I collagen. Kind of experiment: adhesion of whole bacteria to a coated plate (crystal violet staining); type I collagen (0.002-2 mg in 0.25 M acetic acid) coated on 96-well plates overnight at 4°C, blocked with BSA; overnight cultures of S. mutans (1 x 10^8-1 x 10^10 CFU) 3 h at 37°C; fixed, stained with crystal violet, OD595; percent of parental strain SN74.

“Cnm of Streptococcus mutans strain TW871, expressed in complemented strain SN74CNDcomp (natural protein)”: the percent of the collagen binding of parental strain SN74 came to 60%.

These data come from article PMC9513430.
